This passage reports co-IP mass spectrometry count and co-IP mass spectrometry count (C-term flag) results from patent US20240261333A1, “NOVEL TARGETS FOR ENHANCING ANTI-TUMOR IMMUNITY” (THE BROAD INSTITUTE, INC., priority 2021, published 2024).

Assay [1] deals with ACTR3 (UniProt P61158). Briefly: co-IP with anti-FLAG, mass spectrometry; C-FLAG B3GNT2.
For assay [2], the target named is ATP5F1B (UniProt P06576). The description is as above.
Assay [3] addresses ATXN2L (UniProt Q8WWM7). The assay is described as above.
Assay [4] addresses CTSD (UniProt P07339). Described as above.
The target of assay [5] is EEF1A1 (UniProt P68104). The description is as above.
Assay [6] deals with FABP5 (UniProt Q01469). Described as above.
Assay [7] addresses HBA1 (UniProt P69905). The description is as above.
For assay [8], the target named is HNRNPA1 (UniProt P09651). The description is as above.
Assay [9] deals with HNRNPF (UniProt P52597). Described as above.
Assay [10] deals with LYZ (UniProt P61626). Described as above.
In assay [11] the target is PCMT1 (UniProt P22061). Described as above.
The target in assay [12] is RCC2 (UniProt Q9P258). The description is as above.
For assay [13], the target named is RPL10A (UniProt P62906). Described as above.
The target of assay [14] is RPL11 (UniProt P62913). The assay is described as above.
The target of assay [15] is RPL21 (UniProt P46778). The description is as above.
In assay [16] the target is RPL31 (UniProt P62899). The description is as above.
The target in assay [17] is RPL35A (UniProt P18077). The assay is described as above.
For assay [18], the target named is RPL36 (UniProt Q9Y3U8). The description is as above.
For assay [19], the target named is RPL36A (UniProt P83881). The description is as above.
Assay [20] deals with RPLP2 (UniProt P05387). The assay is described as above.
The target of assay [21] is RPN1 (UniProt P04843). Described as above.
For assay [22], the target named is RPS15A (UniProt P62244). Described as above.
The target of assay [23] is SERPINB12 (UniProt Q96P63). The description is as above.
Assay [24] concerns the target SLIRP (UniProt Q9GZT3). The assay is described as above.
Assay [25] concerns the target SSR1 (UniProt P43307). The description is as above.
Assay [26] has as its target STRAP (UniProt Q9Y3F4). The description is as above.
In assay [27] the target is TPI1 (UniProt P60174). The description is as above.
For assay [28], the target named is UBA52 (UniProt P62987). The description is as above.
The target of assay [29] is YBX3 (UniProt P16989). The assay is described as above.
Assay [30] has as its target YWHAZ (UniProt P63104). The assay is described as above.
In assay [31] the target is EIF3I (human) (UniProt Q13347). Description: co-IP with mouse anti-FLAG from lysate of cells overexpressing C-FLAG B3GNT2, then mass spectrometry.
The target of assay [32] is MAGED2 (human) (UniProt Q9UNF1). The description is as above.
In assay [33] the target is SRP14 (human) (UniProt P37108). The assay is described as above.
Assay [34] deals with SUPT16H (human) (UniProt Q9Y5B9). The description is as above.
Assay [35] addresses TAF15 (human) (UniProt Q92804). The assay is described as above.
The target of assay [36] is TCP1 (human) (UniProt P17987). The assay is described as above.
Assay [37] deals with TFAM (human) (UniProt Q00059). The description is as above.
For assay [38], the target named is TIMP3 (human) (UniProt P35625). The description is as above.
The target of assay [39] is CKAP4 (human) (UniProt Q07065). Briefly: co-IP/MS, IgG control IP of N-FLAG B3GNT2 cell lysate.
Assay [40] deals with TGM3 (human) (UniProt Q08188). The description is as above.

Sequence of ATXN2L (Q8WWM7 whole entry): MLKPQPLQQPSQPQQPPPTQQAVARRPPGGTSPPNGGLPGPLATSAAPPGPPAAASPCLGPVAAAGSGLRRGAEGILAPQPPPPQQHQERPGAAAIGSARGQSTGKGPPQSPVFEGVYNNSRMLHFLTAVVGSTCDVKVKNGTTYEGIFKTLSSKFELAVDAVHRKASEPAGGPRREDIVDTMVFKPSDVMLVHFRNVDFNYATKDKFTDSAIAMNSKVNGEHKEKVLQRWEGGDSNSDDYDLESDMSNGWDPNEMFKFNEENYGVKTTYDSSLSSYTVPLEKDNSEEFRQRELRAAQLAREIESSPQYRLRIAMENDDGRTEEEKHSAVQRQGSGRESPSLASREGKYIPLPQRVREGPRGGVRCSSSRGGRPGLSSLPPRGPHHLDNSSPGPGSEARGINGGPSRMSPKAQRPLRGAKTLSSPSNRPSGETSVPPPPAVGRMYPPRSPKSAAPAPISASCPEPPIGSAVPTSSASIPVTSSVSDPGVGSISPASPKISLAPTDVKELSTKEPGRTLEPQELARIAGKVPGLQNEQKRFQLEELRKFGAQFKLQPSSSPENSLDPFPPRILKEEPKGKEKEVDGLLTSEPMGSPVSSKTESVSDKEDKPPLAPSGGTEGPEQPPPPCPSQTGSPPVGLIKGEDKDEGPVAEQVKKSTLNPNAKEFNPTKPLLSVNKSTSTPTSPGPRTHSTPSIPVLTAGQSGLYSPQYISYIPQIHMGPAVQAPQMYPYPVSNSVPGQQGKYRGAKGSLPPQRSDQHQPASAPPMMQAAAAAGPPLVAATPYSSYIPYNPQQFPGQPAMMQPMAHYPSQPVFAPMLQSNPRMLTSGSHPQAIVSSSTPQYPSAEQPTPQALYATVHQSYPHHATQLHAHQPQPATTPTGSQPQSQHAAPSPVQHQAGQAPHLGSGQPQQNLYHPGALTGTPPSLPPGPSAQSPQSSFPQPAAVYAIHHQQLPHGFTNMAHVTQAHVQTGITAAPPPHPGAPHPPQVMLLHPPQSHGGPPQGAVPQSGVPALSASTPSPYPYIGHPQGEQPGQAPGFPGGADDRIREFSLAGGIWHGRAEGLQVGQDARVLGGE
Sequence of CKAP4 (human) (Q07065 whole entry): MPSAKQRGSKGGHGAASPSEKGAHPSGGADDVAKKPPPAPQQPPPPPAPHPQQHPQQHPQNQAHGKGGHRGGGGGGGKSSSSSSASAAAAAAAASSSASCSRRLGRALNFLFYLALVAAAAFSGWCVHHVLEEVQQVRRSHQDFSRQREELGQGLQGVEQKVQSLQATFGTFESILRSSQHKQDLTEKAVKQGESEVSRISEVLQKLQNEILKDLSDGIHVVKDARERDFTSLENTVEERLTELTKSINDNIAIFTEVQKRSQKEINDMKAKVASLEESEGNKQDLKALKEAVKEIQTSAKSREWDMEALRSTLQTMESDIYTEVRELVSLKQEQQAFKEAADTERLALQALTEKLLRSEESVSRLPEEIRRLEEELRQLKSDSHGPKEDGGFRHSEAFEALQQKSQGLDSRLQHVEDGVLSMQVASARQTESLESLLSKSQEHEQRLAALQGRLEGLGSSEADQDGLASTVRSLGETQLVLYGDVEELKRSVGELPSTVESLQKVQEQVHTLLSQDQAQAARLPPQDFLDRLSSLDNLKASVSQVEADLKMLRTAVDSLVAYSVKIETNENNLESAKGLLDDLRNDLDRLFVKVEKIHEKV
Sequence of SERPINB12 (Q96P63 other isoform, or with tags, fused parts or gaps limits assumed): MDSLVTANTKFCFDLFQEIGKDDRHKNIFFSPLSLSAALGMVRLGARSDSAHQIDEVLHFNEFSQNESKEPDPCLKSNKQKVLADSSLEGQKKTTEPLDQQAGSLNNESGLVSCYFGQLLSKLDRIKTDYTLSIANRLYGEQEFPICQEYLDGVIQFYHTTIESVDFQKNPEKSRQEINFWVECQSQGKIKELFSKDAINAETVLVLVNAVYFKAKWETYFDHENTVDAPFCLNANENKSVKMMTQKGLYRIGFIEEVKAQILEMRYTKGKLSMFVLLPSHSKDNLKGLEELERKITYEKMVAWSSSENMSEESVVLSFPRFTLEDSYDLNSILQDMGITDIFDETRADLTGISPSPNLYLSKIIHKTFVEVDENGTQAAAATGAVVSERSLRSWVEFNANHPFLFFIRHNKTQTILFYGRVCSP
Sequence of SUPT16H (human) (Q9Y5B9 2-1047 limits assumed): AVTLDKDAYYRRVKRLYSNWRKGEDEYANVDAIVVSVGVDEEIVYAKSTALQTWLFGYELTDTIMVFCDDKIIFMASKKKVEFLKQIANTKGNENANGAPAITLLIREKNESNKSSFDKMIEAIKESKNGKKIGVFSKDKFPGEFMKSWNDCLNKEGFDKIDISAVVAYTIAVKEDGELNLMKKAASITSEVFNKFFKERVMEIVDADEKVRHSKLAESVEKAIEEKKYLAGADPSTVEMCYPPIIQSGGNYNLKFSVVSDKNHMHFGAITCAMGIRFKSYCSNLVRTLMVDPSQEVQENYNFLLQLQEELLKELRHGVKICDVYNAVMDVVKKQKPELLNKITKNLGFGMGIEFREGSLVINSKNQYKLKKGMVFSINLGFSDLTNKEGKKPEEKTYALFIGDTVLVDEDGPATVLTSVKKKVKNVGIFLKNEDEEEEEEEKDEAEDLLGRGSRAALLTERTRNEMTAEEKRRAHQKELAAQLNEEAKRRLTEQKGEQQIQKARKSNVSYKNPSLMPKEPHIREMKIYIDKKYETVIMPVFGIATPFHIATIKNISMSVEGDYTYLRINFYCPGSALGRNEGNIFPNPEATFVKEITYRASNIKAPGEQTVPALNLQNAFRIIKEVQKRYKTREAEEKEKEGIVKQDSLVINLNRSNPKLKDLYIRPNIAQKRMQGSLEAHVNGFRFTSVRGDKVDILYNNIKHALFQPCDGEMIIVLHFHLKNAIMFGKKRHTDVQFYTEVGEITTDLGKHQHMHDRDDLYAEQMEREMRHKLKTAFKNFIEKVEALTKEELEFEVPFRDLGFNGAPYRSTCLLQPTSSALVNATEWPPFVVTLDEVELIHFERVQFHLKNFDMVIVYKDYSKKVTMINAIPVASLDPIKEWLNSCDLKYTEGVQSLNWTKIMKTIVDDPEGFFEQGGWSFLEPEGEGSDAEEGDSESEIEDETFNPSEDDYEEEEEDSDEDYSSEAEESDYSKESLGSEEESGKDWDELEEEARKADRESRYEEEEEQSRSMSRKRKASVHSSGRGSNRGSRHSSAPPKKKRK
Sequence of YBX3 (P16989 2-372 limits assumed): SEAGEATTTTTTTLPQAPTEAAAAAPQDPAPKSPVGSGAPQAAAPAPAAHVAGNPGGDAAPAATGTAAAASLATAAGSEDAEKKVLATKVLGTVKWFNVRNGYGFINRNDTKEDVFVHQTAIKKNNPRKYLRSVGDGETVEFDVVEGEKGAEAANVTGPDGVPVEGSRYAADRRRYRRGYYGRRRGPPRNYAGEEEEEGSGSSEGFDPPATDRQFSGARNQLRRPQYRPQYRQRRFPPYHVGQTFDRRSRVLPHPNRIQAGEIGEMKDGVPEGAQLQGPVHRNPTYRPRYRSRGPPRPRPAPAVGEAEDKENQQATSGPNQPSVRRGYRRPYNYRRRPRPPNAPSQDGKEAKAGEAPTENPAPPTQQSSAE
Sequence of TAF15 (human) (Q92804 other isoform, or with tags, fused parts or gaps limits assumed): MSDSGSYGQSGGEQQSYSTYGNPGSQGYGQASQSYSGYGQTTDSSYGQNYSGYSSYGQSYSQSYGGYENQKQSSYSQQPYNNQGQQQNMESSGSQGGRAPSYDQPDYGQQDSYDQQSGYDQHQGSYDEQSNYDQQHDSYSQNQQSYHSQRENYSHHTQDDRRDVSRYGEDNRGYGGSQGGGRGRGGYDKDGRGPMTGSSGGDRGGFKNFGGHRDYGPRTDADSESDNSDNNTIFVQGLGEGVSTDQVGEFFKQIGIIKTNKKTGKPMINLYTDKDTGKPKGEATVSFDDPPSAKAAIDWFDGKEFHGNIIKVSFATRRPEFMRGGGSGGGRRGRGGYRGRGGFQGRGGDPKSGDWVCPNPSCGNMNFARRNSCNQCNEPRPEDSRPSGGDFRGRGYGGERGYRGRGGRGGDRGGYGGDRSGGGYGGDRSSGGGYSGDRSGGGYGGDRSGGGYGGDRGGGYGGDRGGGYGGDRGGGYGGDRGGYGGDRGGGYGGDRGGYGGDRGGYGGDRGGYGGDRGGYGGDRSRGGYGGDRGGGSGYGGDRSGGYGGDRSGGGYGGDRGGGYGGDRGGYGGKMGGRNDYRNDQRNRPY
Sequence of RPLP2 (P05387 whole entry): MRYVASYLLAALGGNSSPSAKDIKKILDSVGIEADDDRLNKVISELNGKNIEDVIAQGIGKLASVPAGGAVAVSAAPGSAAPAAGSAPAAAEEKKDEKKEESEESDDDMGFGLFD
Sequence of MAGED2 (human) (Q9UNF1 2-606 limits assumed): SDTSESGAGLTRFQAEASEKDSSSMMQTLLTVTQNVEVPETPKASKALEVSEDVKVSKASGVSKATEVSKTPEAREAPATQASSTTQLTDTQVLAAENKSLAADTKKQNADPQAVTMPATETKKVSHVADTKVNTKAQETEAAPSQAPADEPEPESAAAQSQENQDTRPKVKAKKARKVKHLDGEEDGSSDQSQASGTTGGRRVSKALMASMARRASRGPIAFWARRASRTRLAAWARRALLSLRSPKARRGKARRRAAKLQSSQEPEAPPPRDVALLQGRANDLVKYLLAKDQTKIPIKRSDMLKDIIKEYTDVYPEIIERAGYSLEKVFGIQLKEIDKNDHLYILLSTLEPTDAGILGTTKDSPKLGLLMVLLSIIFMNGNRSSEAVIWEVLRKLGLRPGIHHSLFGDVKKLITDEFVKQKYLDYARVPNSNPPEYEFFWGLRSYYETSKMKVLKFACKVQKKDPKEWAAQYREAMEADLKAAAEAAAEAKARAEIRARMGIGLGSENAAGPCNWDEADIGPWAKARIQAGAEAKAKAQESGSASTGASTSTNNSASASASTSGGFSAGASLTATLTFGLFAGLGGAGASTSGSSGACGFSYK
Sequence of TIMP3 (human) (P35625 24-211 limits assumed): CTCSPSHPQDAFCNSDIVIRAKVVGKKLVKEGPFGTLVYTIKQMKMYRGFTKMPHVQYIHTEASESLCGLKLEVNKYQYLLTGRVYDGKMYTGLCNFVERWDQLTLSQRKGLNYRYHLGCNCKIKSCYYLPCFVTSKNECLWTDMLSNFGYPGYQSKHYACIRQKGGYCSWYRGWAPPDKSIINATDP

As to “C-terminal FLAG tagged B3GNT2 (from UniProt Q9NY97 1-397) (enzyme)”, the co-IP mass spectrometry count in [1] came to 7; in assay [2] it was 4; in assay [3] it was 5; in assay [4], 4; in assay [5], 11; in assay [6], 8. Further, the co-IP mass spectrometry count in assay [7] turned out to be 4; in assay [8], 9; in [9] it was 7; in assay [10], 6; in assay [11] it was 2; in assay [12] it was 6. Also, the co-IP mass spectrometry count stood at 16 in [13]; 7 in assay [14]; 11 in assay [15]; 6 in [16]; 6 in [17]; 6 in assay [18]. Further, the co-IP mass spectrometry count in [19] came out at 11; in [20], 13; in assay [21] it was 7; in [22], 6; in assay [23], 2; in assay [24], 6. In addition, the co-IP mass spectrometry count came to 4 in assay [25]; 3 in [26]; 2 in assay [27]; 20 in assay [28]; 7 in assay [29]; 4 in [30]. The co-IP mass spectrometry count (C-term flag) amounted to 3 in assay [31]; 3 in assay [32]; 3 in [33]; 3 in [34]; 10 in assay [35]; 3 in [36]. The co-IP mass spectrometry count (C-term flag) in assay [37] and in assay [38] was 3 in each case.

As to “IgG control (Millipore Sigma 12-371) (antibody)”, the results for the co-IP mass spectrometry count in assay [39] and in assay [40] were 0 and 2, respectively.
